# PMC10114367 (Fluids and Barriers of the CNS, 2023)
# Entries after “also recorded” stand apart in the source; their conditions may differ.
# How the values were obtained:
# [1] = test system: blood-brain barrier (BBB); assay: Whole brain vascular space / BBB permeability to ^99mTc-albumin following CNS treatment; format: in vivo, CD-1 mice
# Method: For all radioactive studies, the right jugular vein and left carotid artery were exposed. […] Mice were injected IV with the radioactive tracer 10 min later. […] The whole brain, olfactory bulb, and in some cases the hypothalamus were removed and weighed. […] Each mouse yielded a single serum sample and time-matched brain sample. Exposure time was calculated from the formula:1 [drawing 1] , where Am is the level of radioactivity (CPM) per gram of brain tissue at time (t), Cpt is the level of radioactivity (CPM) per ml arterial serum at time t, Ki (μl/g-min) is the steady-state rate of unidirectional solute influx from blood to brain. Vi (μl/g) is the level of solute in rapid, reversible equilibrium between plasma and brain. Subtracting ratios for ^99mTc-albumin from the corresponding ^125I-insulin brain/serum (B/S) ratio yielded a delta B/S ratio, which corrects the B/S ratio for ^125I-insulin for vascular space. The linear portion of the relation between the delta B/S ratio versus exposure time is represented in the figures and was used to calculate the Ki (μl/g-min) with its standard error term, and the y-intercept determined representing the Vi(μl/g).
# [2] = Distribution of ^125I-insulin and ^125I-S961 following ICV delivery; format: in vivo, CD-1 mice
# Method: The scalp was reflected in anesthetized mice and a hole was drilled 1 mm lateral and 0.2 mm posterior to the Bregma. […] Brains were removed between 2 and 60 min later and dissected into regions. […] Weighed brain regions and serum were counted in a gamma counter (Wizard2, Perkin Elmer, Waltham, MA, USA). […] The %Inj was divided by the weight of the region (g/region) or the volume serum measured (ul/serum) to calculate the %Inj/g and %Inj/ml. Pilot studies were performed to identify ventricular injection using this method.
# [3] = test system: insulin transport across the blood-brain barrier (BBB); assay: ^125I-insulin blood-to-brain BBB pharmacokinetics by multiple-time regression analysis (MTRA) after CNS treatment; format: in vivo, CD-1 mice; settings: for Ki of ^125I-insulin (unidirectional influx blood to brain) / Vi of ^125I-insulin (reversible vascular binding): male mice; for Ki of ^125I-insulin (unidirectional influx blood to brain): MTRA slope ± SE; for Vi of ^125I-insulin (reversible vascular binding): MTRA y-intercept
# Method: For all radioactive studies, the right jugular vein and left carotid artery were exposed. […] The whole brain, olfactory bulb, and in some cases the hypothalamus were removed and weighed. […] Each mouse yielded a single serum sample and time-matched brain sample. Exposure time was calculated from the formula:1 [drawing 1] , where Cp is the level of radioactivity (CPM) in serum at time (t). […] Vi (μl/g) is the level of solute in rapid, reversible equilibrium between plasma and brain. […] The linear portion of the relation between the delta B/S ratio versus exposure time is represented in the figures and was used to calculate the Ki (μl/g-min) with its standard error term, and the y-intercept determined representing the Vi(μl/g). Regression analyses and other statistical analyses were performed with Prism 9.0 (GraphPad Softward Inc., San Diego, CA, USA). For all MTRA pharmacokinetic studies, the slope of the linear regression lines (Ki), reported with their correlation coefficients (r), and y-intercepts (Vi) were compared statistically using Prism equivalent to an analysis of covariance (ANCOVA). For these studies, the individual data points are presented in the representative Figures. For the regional studies, the regional B/S levels for each sex were reported with their standard error terms and analyzed by a two-way analysis of variance (ANOVA) followed by Tukey's post hoc test when appropriate.
# [4] = test system: regional brain vascular space; assay: Regional ^99mTc-albumin brain/serum ratios (vascular space) following CNS treatment; format: in vivo, CD-1 mice; settings: olfactory bulb; male; 30 min after 1 µg IN insulin
# Method: For the regional studies, brain and serum were collected at a single time point post central nervous system (CNS) manipulation. For IN studies following ICV delivery, S961 (1 µg in PB) or vehicle was given ICV, and IN ^125I-insulin was immediately administered. 30 min later, brain and serum were collected. […] For IV studies following ICV delivery, S961 (1 µg in PB) or vehicle was given ICV and 10 min later, IV ^125I-insulin and ^99mTc-albumin was injected. For the IV studies, brain and serum were collected 5 min later. Olfactory bulb (OB) and the whole brain dissected into 10 regions were weighed: striatum (St), frontal cortex (FC), hypothalamus (Hy), hippocampus (HC), thalamus (Th), parietal cortex (PC), occipital cortex (OC), cerebellum (CB), midbrain (MB), and pons-medulla (PM). Whole brain (WB) is the summed value from individual regions. The levels of radioactivity in serum (50 µl) and brain samples were counted in a gamma counter (Wizard2, Perkin Elmer, Waltham, MA, USA). %Inj/g for IN distribution and Delta B/S ratios following IV administration were calculated as described above. ^99mTc-albumin B/S ratios are also presented to identify changes in regional vascular space following CNS manipulation.
# [5] = Immunoactive serum insulin measurement (MSD mouse insulin kit) after ICV treatment; format: in vivo, CD-1 mice; settings: male, kit cross reacts with human insulin
# Method: Whole blood was centrifuged at 3,200xg for 10 min. Serum was collected, aliquoted, and frozen at -80 °C until measurement. […] This kit cross reacts with human insulin.
# [6] = biological target: insulin transport across the blood-brain barrier (BBB); settings: per mouse; cited from earlier work
# Method: The average blood volume of a mouse is about 77–80 ml/kg. Given that our male CD-1 mice are approximately 30 g at the time of study, these mice have around 2.4 ml of blood. […] Therefore, while th ...
# [7] = cited from earlier work
# [8] = olfactory bulb, 1 µg ICV insulin 10 min before IV ^125I-insulin
# [9] = olfactory bulb, 1 µg IN insulin 30 min before IV ^125I-insulin
# [10] = whole brain, 1 µg ICV insulin 10 min before IV ^125I-insulin
substance,measurement,setting,value
^99mTc-albumin: bovine serum albumin labeled with Technetium-99m; marker for vascular space,^99mTc-albumin whole brain B/S ratio,"[1]; mouse, in vivo, iv",8 to 12 µL/g
human insulin,expected amount per gram of brain tissue after 1 µg ICV administration,[2]; calculated from %Inj/g at 10 min and 1 µg ICV dose,approximately 605 ng per gram of brain tissue
same,level in whole brain after ICV delivery,"[2]; radiolabelled tracer ICV, whole brain at 10 min",approximately 60.5 %Inj/g
same,Ki of ^125I-insulin (unidirectional influx blood to brain),"[3]; hypothalamus, 1 µg IN insulin 30 min before IV ^125I-insulin, regression ns",0.57 ± 0.88 µL/g/min
same,slowing of ^125I-insulin blood-to-brain transport rate vs vehicle,"[3]; hypothalamus, male, 1 µg IN insulin, 30 min",about 85%
same,Ki of ^125I-insulin (unidirectional influx blood to brain),[3]; [8],~ 0.3 µl/g-min
same,Ki of ^125I-insulin (unidirectional influx blood to brain),"[3]; olfactory bulb, 1 µg ICV insulin 10 min before IV ^125I-insulin, listed as Insulin",0.35 ± 0.16 µL/g/min
same,Vi of ^125I-insulin (reversible vascular binding),[3]; [8],14.6 ± 2.2 µL/g
same,Ki of ^125I-insulin (unidirectional influx blood to brain),[3]; [9],2.74 ± 0.52 µL/g/min
same,Vi of ^125I-insulin (reversible vascular binding),[3]; [9],9.7 ± 3.9 µL/g
same,decrease of ^125I-insulin blood-to-brain transport rate vs vehicle,"[3]; olfactory bulb, male, 1 µg ICV insulin, 10 min",about 82%
same,Ki of ^125I-insulin (unidirectional influx blood to brain),[3]; [10],~ 0.3 µl/g-min
same,Ki of ^125I-insulin (unidirectional influx blood to brain),"[3]; whole brain, 1 µg ICV insulin 10 min before IV ^125I-insulin, listed as Insulin",0.30 ± 0.11 µL/g/min
same,Vi of ^125I-insulin (reversible vascular binding),[3]; [10],7.9 ± 1.5 µL/g
same,effect on whole brain vascular space or BBB leakage measured with ^99mTc-albumin,"[1]; 1 µg ICV or IN insulin (males), 1 µg ICV S961 (males, females)",no effect
same,increase in ^99mTc-albumin vs vehicle,[4],43%
same,change in serum insulin level vs vehicle,[5]; 30 min after 1 µg ICV human insulin,nearly doubled; also recorded: two-fold increase
same,rise in serum insulin level,[5]; 30 min after 1 µg human insulin ICV,5 ng/mL
same,IV bolus of unlabeled insulin necessary to reduce the ^125I-insulin BBB Ki by 50%,[6],121 ng
same,insulin present in hypothalamus after IN delivery,"[7]; hypothalamus, 30 min after IN insulin delivery, male CD-1 mice",0.23 %Inj/g
^125I-insulin: human insulin radioactively labeled with ^125I; tracer for BBB transport,amount of ^125I-insulin entering the blood following ICV delivery,"[2]; mouse, in vivo",< 3 %Inj/ml
same,time by which tracer is distributed throughout the brain after ICV delivery,"[2]; mouse, in vivo",≤ 5 min
same,time to appearance in serum after ICV injection,"[2]; mouse, in vivo",≤ 5 min
same,^125I-insulin present in whole brain after IN delivery,"[7]; mouse, in vivo",approximately 0.13 %Inj/g
same,time of peak brain level after IN administration,"[7]; mouse, in vivo",about 30 min
